This is an account of results in patent US20150045540A1 (published 2015).

Assay [1] deals with Hepatocyte Growth Factor (HGF), human (human, UniProt P14210 32-728). Briefly: ELISA.
Assay [2] has as its target T1, Placenta Growth Factor (PlGF), human (human, UniProt P49763 21-149).
T1 chain: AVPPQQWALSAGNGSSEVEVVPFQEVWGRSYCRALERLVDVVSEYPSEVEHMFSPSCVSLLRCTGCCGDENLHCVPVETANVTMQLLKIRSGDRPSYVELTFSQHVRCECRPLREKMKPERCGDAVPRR
Kind of assay: ELISA. On the technique in general: An ELISA detects its analyte on a solid surface through an enzyme-linked reagent.

Hepatocyte Growth Factor (HGF), human, sequence (P14210 32-728): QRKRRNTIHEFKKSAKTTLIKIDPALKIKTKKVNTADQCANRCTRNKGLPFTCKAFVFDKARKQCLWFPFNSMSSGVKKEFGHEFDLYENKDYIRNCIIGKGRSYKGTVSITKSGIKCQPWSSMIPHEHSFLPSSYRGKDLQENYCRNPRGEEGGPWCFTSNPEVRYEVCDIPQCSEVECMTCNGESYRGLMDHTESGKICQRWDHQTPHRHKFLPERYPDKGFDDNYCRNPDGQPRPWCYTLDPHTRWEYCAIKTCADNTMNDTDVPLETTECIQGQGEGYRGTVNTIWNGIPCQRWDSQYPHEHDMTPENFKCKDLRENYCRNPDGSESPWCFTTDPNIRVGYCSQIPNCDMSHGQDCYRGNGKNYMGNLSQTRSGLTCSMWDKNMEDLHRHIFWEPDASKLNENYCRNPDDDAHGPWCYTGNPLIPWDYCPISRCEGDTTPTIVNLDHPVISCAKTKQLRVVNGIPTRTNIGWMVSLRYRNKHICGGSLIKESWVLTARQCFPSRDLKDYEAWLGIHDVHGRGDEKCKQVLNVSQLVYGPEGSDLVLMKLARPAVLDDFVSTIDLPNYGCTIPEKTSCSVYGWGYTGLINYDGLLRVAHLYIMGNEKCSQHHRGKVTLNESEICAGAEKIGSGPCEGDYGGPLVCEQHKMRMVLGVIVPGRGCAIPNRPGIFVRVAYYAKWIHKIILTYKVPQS

B1: HC 9/SLC 7 (antibody)
chain 1: GQGTLVTVSSASTKGPSVFQPVLHQPPAMSSALGTTIRLTCTLRNDHDIGVYSVYWYQQRPGHPPRFLLRYFSQSDKSQGPQVPPRFSGSKDVARNRGYLSISELQPEDEAMYYCAMGARSRCWPRGFQSKHNSVTHVFGSGTQLTVLSQPKATPSVTLFPPSSEELQANKATLVCLMNDFYPGILTVTWKADGTPITQGVEMTTPSKQSNNKYAASSYLSLTPEQWRSRRSYSCQVMHEGSTVEKTVAPAECS
chain 2: MSWAPVLLMLFVYCTGCGPQPVLHQPPAMSSALGTTIRLTCTLRNDHDIGVYSVYWYQQRPGHPPRFLLRYFSQSDKSQGPQVPPRFSGSKDVARNRGYLSISVTHVFGSGTQLTVLSQPKATPQVQLVQ
For orientation: EC50 means the concentration needed to bring the measured effect to its halfway point. A high value points to a less potent agent. Turning to B1, the EC50 was determined as 0.059 nM in assay [1] and 0.063 nM in assay [2].

B2: HC 9/SLC 8 (antibody)
chain 1: GQGTLVTVSSASTKGPSVFQPVLHQPPAMSSALGTTIRLTCTLRNDHDIGVYSVYWYQQRPGHPPRFLLRYFSQSDKSQGPQVPPRFSGSKDVARNRGYLSISELQPEDEAMYYCAMGARSRCWPRGFQSKHNSVTHVFGSGTQLTVLSQPKATPSVTLFPPSSEELQANKATLVCLMNDFYPGILTVTWKADGTPITQGVEMTTPSKQSNNKYAASSYLSLTPEQWRSRRSYSCQVMHEGSTVEKTVAPAECS
chain 2: MSWAPVLLMLFVYCTGCGPQPVLHQPPAMSSALGTTIRLTCTLRNDHDIGVYSVYWYQQRPGHPPRFLLRYFSQSDKSQGPQVPPRFSGSKDVARNRGYLSISVTHVFGSGTQLTVLSQPKATPSQVQLVQ
In the case of B2, the figures for the concentration for a half-maximal effect (EC50) in assay [1] and in assay [2] were 0.061 nM and 0.063 nM, respectively.

B3: HC 3/SLC 6 (antibody)
chain 1: GQGTLVTVSSASTQPVLHQPPAMSSALGTTIRLTCTLRNDHDIGVYSVYWYQQRPGHPPRFLLRYFSQSDKSQGPQVPPRFSGSKDVARNRGYLSISELQPEDEAMYYCAMGARSRCWPRGFQSKHNSVTHVFGSGTQLTVLSQPKATPSVTLFPPSSEELQANKATLVCLMNDFYPGILTVTWKADGTPITQGVEMTTPSKQSNNKYAASSYLSLTPEQWRSRRSYSCQVMHEGSTVEKTVAPAECS
chain 2: MSWAPVLLMLFVYCTGCGPQPVLHQPPAMSSALGTTIRLTCTLRNDHDIGVYSVYWYQQRPGHPPRFLLRYFSQSDKSQGPQVPPRFSGSKDVARNRGYLSISVTHVFGSGTQLTVLSQPKATQVQLVQ
As to B3, the EC50 in assay [1] is 0.057 nM; in assay [2], 0.163 nM.

B4: HC 3/SLC 15 (antibody)
chain 1: GQGTLVTVSSASTQPVLHQPPAMSSALGTTIRLTCTLRNDHDIGVYSVYWYQQRPGHPPRFLLRYFSQSDKSQGPQVPPRFSGSKDVARNRGYLSISELQPEDEAMYYCAMGARSRCWPRGFQSKHNSVTHVFGSGTQLTVLSQPKATPSVTLFPPSSEELQANKATLVCLMNDFYPGILTVTWKADGTPITQGVEMTTPSKQSNNKYAASSYLSLTPEQWRSRRSYSCQVMHEGSTVEKTVAPAECS
chain 2: MSWAPVLLMLFVYCTGCGPQPVLHQPPAMSSALGTTIRLTCTLRNDHDIGVYSVYWYQQRPGHPPRFLLRYFSQSDKSQGPQVPPRFSGSKDVARNRGYLSISVTHVFGSGTQLTVLSQPKATPSVTGGGGSQVQLVQ
B4: the EC50 in assay [1] was about 0.041 nM; in assay [2] it was 0.057 nM.

B5: HC 4/SLC 6 (antibody)
chain 1: GQGTLVTVSSASTKQPVLHQPPAMSSALGTTIRLTCTLRNDHDIGVYSVYWYQQRPGHPPRFLLRYFSQSDKSQGPQVPPRFSGSKDVARNRGYLSISELQPEDEAMYYCAMGARSRCWPRGFQSKHNSVTHVFGSGTQLTVLSQPKATPSVTLFPPSSEELQANKATLVCLMNDFYPGILTVTWKADGTPITQGVEMTTPSKQSNNKYAASSYLSLTPEQWRSRRSYSCQVMHEGSTVEKTVAPAECS
chain 2: MSWAPVLLMLFVYCTGCGPQPVLHQPPAMSSALGTTIRLTCTLRNDHDIGVYSVYWYQQRPGHPPRFLLRYFSQSDKSQGPQVPPRFSGSKDVARNRGYLSISVTHVFGSGTQLTVLSQPKATQVQLVQ
B5: the values for the EC50 in assay [1] and in assay [2] were 0.063 nM and 0.208 nM, respectively.

B6: HC 3/SLC 9 (antibody)
chain 1: GQGTLVTVSSASTQPVLHQPPAMSSALGTTIRLTCTLRNDHDIGVYSVYWYQQRPGHPPRFLLRYFSQSDKSQGPQVPPRFSGSKDVARNRGYLSISELQPEDEAMYYCAMGARSRCWPRGFQSKHNSVTHVFGSGTQLTVLSQPKATPSVTLFPPSSEELQANKATLVCLMNDFYPGILTVTWKADGTPITQGVEMTTPSKQSNNKYAASSYLSLTPEQWRSRRSYSCQVMHEGSTVEKTVAPAECS
chain 2: MSWAPVLLMLFVYCTGCGPQPVLHQPPAMSSALGTTIRLTCTLRNDHDIGVYSVYWYQQRPGHPPRFLLRYFSQSDKSQGPQVPPRFSGSKDVARNRGYLSISVTHVFGSGTQLTVLSQPKATPSVQVQLVQ
For the molecule B6, the figures for the EC50 in assay [1] and in assay [2] were 0.049 nM and 0.13 nM, respectively.

B7: HC 7/SLC 6 (antibody)
chain 1: GQGTLVTVSSASTKGPSQPVLHQPPAMSSALGTTIRLTCTLRNDHDIGVYSVYWYQQRPGHPPRFLLRYFSQSDKSQGPQVPPRFSGSKDVARNRGYLSISELQPEDEAMYYCAMGARSRCWPRGFQSKHNSVTHVFGSGTQLTVLSQPKATPSVTLFPPSSEELQANKATLVCLMNDFYPGILTVTWKADGTPITQGVEMTTPSKQSNNKYAASSYLSLTPEQWRSRRSYSCQVMHEGSTVEKTVAPAECS
chain 2: MSWAPVLLMLFVYCTGCGPQPVLHQPPAMSSALGTTIRLTCTLRNDHDIGVYSVYWYQQRPGHPPRFLLRYFSQSDKSQGPQVPPRFSGSKDVARNRGYLSISVTHVFGSGTQLTVLSQPKATQVQLVQ
For the molecule B7, the figures for the EC50 in assay [1] and in assay [2] were 0.062 nM and 0.153 nM, respectively.

B8: HC 8/SLC 5 (antibody)
chain 1: GQGTLVTVSSASTKGPSVQPVLHQPPAMSSALGTTIRLTCTLRNDHDIGVYSVYWYQQRPGHPPRFLLRYFSQSDKSQGPQVPPRFSGSKDVARNRGYLSISELQPEDEAMYYCAMGARSRCWPRGFQSKHNSVTHVFGSGTQLTVLSQPKATPSVTLFPPSSEELQANKATLVCLMNDFYPGILTVTWKADGTPITQGVEMTTPSKQSNNKYAASSYLSLTPEQWRSRRSYSCQVMHEGSTVEKTVAPAECS
chain 2: MSWAPVLLMLFVYCTGCGPQPVLHQPPAMSSALGTTIRLTCTLRNDHDIGVYSVYWYQQRPGHPPRFLLRYFSQSDKSQGPQVPPRFSGSKDVARNRGYLSISVTHVFGSGTQLTVLSQPKAQVQLVQ
On to B8, for which the figures for the EC50 in assay [1] and in assay [2] were 0.063 nM and 0.289 nM, respectively.

B9: HC 8/SLC 8 (antibody)
chain 1: GQGTLVTVSSASTKGPSVQPVLHQPPAMSSALGTTIRLTCTLRNDHDIGVYSVYWYQQRPGHPPRFLLRYFSQSDKSQGPQVPPRFSGSKDVARNRGYLSISELQPEDEAMYYCAMGARSRCWPRGFQSKHNSVTHVFGSGTQLTVLSQPKATPSVTLFPPSSEELQANKATLVCLMNDFYPGILTVTWKADGTPITQGVEMTTPSKQSNNKYAASSYLSLTPEQWRSRRSYSCQVMHEGSTVEKTVAPAECS
chain 2: MSWAPVLLMLFVYCTGCGPQPVLHQPPAMSSALGTTIRLTCTLRNDHDIGVYSVYWYQQRPGHPPRFLLRYFSQSDKSQGPQVPPRFSGSKDVARNRGYLSISVTHVFGSGTQLTVLSQPKATPSQVQLVQ
With B9, the EC50 amounted to 0.056 nM in assay [1] and 0.069 nM in assay [2].

B10: HC 8/SLC 2 (antibody)
chain 1: GQGTLVTVSSASTKGPSVQPVLHQPPAMSSALGTTIRLTCTLRNDHDIGVYSVYWYQQRPGHPPRFLLRYFSQSDKSQGPQVPPRFSGSKDVARNRGYLSISELQPEDEAMYYCAMGARSRCWPRGFQSKHNSVTHVFGSGTQLTVLSQPKATPSVTLFPPSSEELQANKATLVCLMNDFYPGILTVTWKADGTPITQGVEMTTPSKQSNNKYAASSYLSLTPEQWRSRRSYSCQVMHEGSTVEKTVAPAECS
chain 2: MSWAPVLLMLFVYCTGCGPQPVLHQPPAMSSALGTTIRLTCTLRNDHDIGVYSVYWYQQRPGHPPRFLLRYFSQSDKSQGPQVPPRFSGSKDVARNRGYLSISVTHVFGSGTQLTVLSQQVQLVQ
Take B10: the figures for the EC50 in assay [1] and in assay [2] were 0.059 nM and 0.227 nM, respectively.

B11: HC 8/SLC 4 (antibody)
chain 1: GQGTLVTVSSASTKGPSVQPVLHQPPAMSSALGTTIRLTCTLRNDHDIGVYSVYWYQQRPGHPPRFLLRYFSQSDKSQGPQVPPRFSGSKDVARNRGYLSISELQPEDEAMYYCAMGARSRCWPRGFQSKHNSVTHVFGSGTQLTVLSQPKATPSVTLFPPSSEELQANKATLVCLMNDFYPGILTVTWKADGTPITQGVEMTTPSKQSNNKYAASSYLSLTPEQWRSRRSYSCQVMHEGSTVEKTVAPAECS
chain 2: MSWAPVLLMLFVYCTGCGPQPVLHQPPAMSSALGTTIRLTCTLRNDHDIGVYSVYWYQQRPGHPPRFLLRYFSQSDKSQGPQVPPRFSGSKDVARNRGYLSISVTHVFGSGTQLTVLSQPKQVQLVQ
With B11, the EC50 in assay [1] stood at 0.071 nM; in assay [2], 0.281 nM.

B12: HC 8/SLC 9 (antibody)
chain 1: GQGTLVTVSSASTKGPSVQPVLHQPPAMSSALGTTIRLTCTLRNDHDIGVYSVYWYQQRPGHPPRFLLRYFSQSDKSQGPQVPPRFSGSKDVARNRGYLSISELQPEDEAMYYCAMGARSRCWPRGFQSKHNSVTHVFGSGTQLTVLSQPKATPSVTLFPPSSEELQANKATLVCLMNDFYPGILTVTWKADGTPITQGVEMTTPSKQSNNKYAASSYLSLTPEQWRSRRSYSCQVMHEGSTVEKTVAPAECS
chain 2: MSWAPVLLMLFVYCTGCGPQPVLHQPPAMSSALGTTIRLTCTLRNDHDIGVYSVYWYQQRPGHPPRFLLRYFSQSDKSQGPQVPPRFSGSKDVARNRGYLSISVTHVFGSGTQLTVLSQPKATPSVQVQLVQ
Turning to B12, the EC50 in assay [1] was 0.049 nM; in assay [2], 0.045 nM.

B13: HC 6/SLC 5 (antibody)
chain 1: GQGTLVTVSSASTKGPQPVLHQPPAMSSALGTTIRLTCTLRNDHDIGVYSVYWYQQRPGHPPRFLLRYFSQSDKSQGPQVPPRFSGSKDVARNRGYLSISELQPEDEAMYYCAMGARSRCWPRGFQSKHNSVTHVFGSGTQLTVLSQPKATPSVTLFPPSSEELQANKATLVCLMNDFYPGILTVTWKADGTPITQGVEMTTPSKQSNNKYAASSYLSLTPEQWRSRRSYSCQVMHEGSTVEKTVAPAECS
chain 2: MSWAPVLLMLFVYCTGCGPQPVLHQPPAMSSALGTTIRLTCTLRNDHDIGVYSVYWYQQRPGHPPRFLLRYFSQSDKSQGPQVPPRFSGSKDVARNRGYLSISVTHVFGSGTQLTVLSQPKAQVQLVQ
Turning to B13, the results for the EC50 in assay [1] and in assay [2] were 0.066 nM and 0.251 nM, respectively.
